Here are results for four proteins from paper PMC6082870, “Molecular architecture of the multifunctional collagen lysyl hydroxylase and glycosyltransferase LH3” (Nature Communications, 2018).

Series [1] deals with the molecule itself. In words: not stated; oligomeric assembly of LH3 N223S, Supplementary Fig. 11B; method not given.
Series [2] concerns the molecule itself. The experiment in a line: SEC; analytical size exclusion, Superdex 200 5/150 GL, 25 mM HEPES/NaOH, 200 mM NaCl, pH 8.0.
Series [3] deals with the molecule itself. The experiment in a line: SEC-SAXS; 50 uL LH3 at 4 mg/mL on Superdex 200 PC 3.2/300 Increase, 25 mM HEPES/NaOH, 200 mM NaCl, pH 8.0, online SAXS at ESRF BM29.

B1: LH3 N223S pathogenic variant (enzyme, human, UniProt O60568 25-738, looked up)
chain: SDRPRGRDPVNPEKLLVITVATAETEGYLRFLRSAEFFNYTVRTLGLGEEWRGGDVARTVGGGQKVRWLKKEMEKYADREDMIIMFVDSYDVILAGSPTELLKKFVQSGSRLLFSAESFCWPEWGLAEQYPEVGTGKRFLNSGGFIGFATTIHQIVRQWKYKDDDDDQLFYTRLYLDPGLREKLSLNLDHKSRIFQNLSGALDEVVLKFDRNRVRIRNVAYDTLPIVVHGNGPTKLQLNYLGNYVPNGWTPEGGCGFCNQDRRTLPGGQPPPRVFLAVFVEQPTPFLPRFLQRLLLLDYPPDRVTLFLHNNEVFHEPHIADSWPQLQDHFSAVKLVGPEEALSPGEARDMAMDLCRQDPECEFYFSLDADAVLTNLQTLRILIEENRKVIAPMLSRHGKLWSNFWGALSPDEYYARSEDYVELVQRKRVGVWNVPYISQAYVIRGDTLRMELPQRDVFSGSDTDPDMAFCKSFRDKGIFLHLSNQHEFGRLLATSRYDTEHLHPDLWQIFDNPVDWKEQYIHENYSRALEGEGIVEQPCPDVYWFPLLSEQMCDELVAEMEHYGQWSGGRHEDSRLAGGYENVPTVDIHMKQVGYEDQWLQLLRTYVGPMTESLFPGYHTKARAVMNFVVRYRPDEQPSLRPHHDSSTFTLNVALNHKGLDYEGGGCRFLRYDCVISSPRKGWALLHPGRLTHYHEGLPTTWGTRYIMVSFVDP
notes: human LH3 (PLOD3), GenBank BC011674.2, devoid of the N-terminal signal peptide, with the pathogenic mutation N223S; The mutation was reported to add an N-linked glycosylation on Asn221; not shown: 6xHis, N-terminal, cleaved
Take B1: the “stoichiometry N” value in series [1] was determined as 2.

B2: LH3 W148N-L150T glycosylated control mutant (enzyme, human, UniProt O60568 25-738, looked up)
chain: SDRPRGRDPVNPEKLLVITVATAETEGYLRFLRSAEFFNYTVRTLGLGEEWRGGDVARTVGGGQKVRWLKKEMEKYADREDMIIMFVDSYDVILAGSPTELLKKFVQSGSRLLFSAESFCWPENGTAEQYPEVGTGKRFLNSGGFIGFATTIHQIVRQWKYKDDDDDQLFYTRLYLDPGLREKLSLNLDHKSRIFQNLNGALDEVVLKFDRNRVRIRNVAYDTLPIVVHGNGPTKLQLNYLGNYVPNGWTPEGGCGFCNQDRRTLPGGQPPPRVFLAVFVEQPTPFLPRFLQRLLLLDYPPDRVTLFLHNNEVFHEPHIADSWPQLQDHFSAVKLVGPEEALSPGEARDMAMDLCRQDPECEFYFSLDADAVLTNLQTLRILIEENRKVIAPMLSRHGKLWSNFWGALSPDEYYARSEDYVELVQRKRVGVWNVPYISQAYVIRGDTLRMELPQRDVFSGSDTDPDMAFCKSFRDKGIFLHLSNQHEFGRLLATSRYDTEHLHPDLWQIFDNPVDWKEQYIHENYSRALEGEGIVEQPCPDVYWFPLLSEQMCDELVAEMEHYGQWSGGRHEDSRLAGGYENVPTVDIHMKQVGYEDQWLQLLRTYVGPMTESLFPGYHTKARAVMNFVVRYRPDEQPSLRPHHDSSTFTLNVALNHKGLDYEGGGCRFLRYDCVISSPRKGWALLHPGRLTHYHEGLPTTWGTRYIMVSFVDP
modifications: additional glycosylation at the compact N-terminal (crystal contact) interface, introduced by W148N-L150T
notes: human LH3 (PLOD3), GenBank BC011674.2, devoid of the N-terminal signal peptide, with W148N and L150T; not shown: 6xHis, N-terminal, cleaved
Regarding B2, the “stoichiometry N” value in series [2] is 2.

B3: LH3 L715D mutant (enzyme, human, UniProt O60568 25-738, looked up)
chain: SDRPRGRDPVNPEKLLVITVATAETEGYLRFLRSAEFFNYTVRTLGLGEEWRGGDVARTVGGGQKVRWLKKEMEKYADREDMIIMFVDSYDVILAGSPTELLKKFVQSGSRLLFSAESFCWPEWGLAEQYPEVGTGKRFLNSGGFIGFATTIHQIVRQWKYKDDDDDQLFYTRLYLDPGLREKLSLNLDHKSRIFQNLNGALDEVVLKFDRNRVRIRNVAYDTLPIVVHGNGPTKLQLNYLGNYVPNGWTPEGGCGFCNQDRRTLPGGQPPPRVFLAVFVEQPTPFLPRFLQRLLLLDYPPDRVTLFLHNNEVFHEPHIADSWPQLQDHFSAVKLVGPEEALSPGEARDMAMDLCRQDPECEFYFSLDADAVLTNLQTLRILIEENRKVIAPMLSRHGKLWSNFWGALSPDEYYARSEDYVELVQRKRVGVWNVPYISQAYVIRGDTLRMELPQRDVFSGSDTDPDMAFCKSFRDKGIFLHLSNQHEFGRLLATSRYDTEHLHPDLWQIFDNPVDWKEQYIHENYSRALEGEGIVEQPCPDVYWFPLLSEQMCDELVAEMEHYGQWSGGRHEDSRLAGGYENVPTVDIHMKQVGYEDQWLQLLRTYVGPMTESLFPGYHTKARAVMNFVVRYRPDEQPSLRPHHDSSTFTLNVALNHKGLDYEGGGCRFLRYDCVISSPRKGWALLHPGRDTHYHEGLPTTWGTRYIMVSFVDP
notes: human LH3 (PLOD3), GenBank BC011674.2, devoid of the N-terminal signal peptide, with L715D; not shown: 6xHis, N-terminal, cleaved
For the protein B3, the binding result in series [2] was “binds”.

B4: human lysyl hydroxylase 3 (LH3/PLOD3), wild type (enzyme, UniProt O60568 25-738, looked up)
chain: SDRPRGRDPVNPEKLLVITVATAETEGYLRFLRSAEFFNYTVRTLGLGEEWRGGDVARTVGGGQKVRWLKKEMEKYADREDMIIMFVDSYDVILAGSPTELLKKFVQSGSRLLFSAESFCWPEWGLAEQYPEVGTGKRFLNSGGFIGFATTIHQIVRQWKYKDDDDDQLFYTRLYLDPGLREKLSLNLDHKSRIFQNLNGALDEVVLKFDRNRVRIRNVAYDTLPIVVHGNGPTKLQLNYLGNYVPNGWTPEGGCGFCNQDRRTLPGGQPPPRVFLAVFVEQPTPFLPRFLQRLLLLDYPPDRVTLFLHNNEVFHEPHIADSWPQLQDHFSAVKLVGPEEALSPGEARDMAMDLCRQDPECEFYFSLDADAVLTNLQTLRILIEENRKVIAPMLSRHGKLWSNFWGALSPDEYYARSEDYVELVQRKRVGVWNVPYISQAYVIRGDTLRMELPQRDVFSGSDTDPDMAFCKSFRDKGIFLHLSNQHEFGRLLATSRYDTEHLHPDLWQIFDNPVDWKEQYIHENYSRALEGEGIVEQPCPDVYWFPLLSEQMCDELVAEMEHYGQWSGGRHEDSRLAGGYENVPTVDIHMKQVGYEDQWLQLLRTYVGPMTESLFPGYHTKARAVMNFVVRYRPDEQPSLRPHHDSSTFTLNVALNHKGLDYEGGGCRFLRYDCVISSPRKGWALLHPGRLTHYHEGLPTTWGTRYIMVSFVDP
modifications: N-linked glycosylations at Asn63 and Asn548
notes: a vector signal peptide, 6xHis tag and TEV site precede the BamHI site, so a few vector residues may remain after TEV cleavage; also called wild-type LH3; full-length human LH3; not shown: 6xHis, N-terminal, cleaved
On to B4, for which the “stoichiometry N” value in series [3] was 2.
